Source: publication PMC12049551, “Labelizer: systematic selection of protein residues for covalent fluorophore labeling” (Nature Communications, 2025)
Read-outs that look alike come from different tables or passages of the source.

What was measured:
[1] = Isothermal titration calorimetry (ITC) of PBP variants with inorganic phosphate; assay type: binding, E. coli; conditions: 25 °C, unlabeled protein, mean ± SD from n = 2 protein preparations
Experimental: Protein from a diluted solution was concentrated to ~ 30 µM using a Viva Spin 6 concentrator with a 10 kDa MWCO. The filtrate was used to prepare the phosphate solution at 450 µM. The reaction cell was filled with the protein solution and titrated in 19 steps of 2 µl each of phosphate solution in 160 s intervals. A baseline control was obtained from measurements made with protein-free filtrate in the reaction cell, and this baseline was subtracted from the experimental thermograms. Data were fitted to a single binding site model using the Setup MicroCal PEAQ-ITC Analysis Software provided by the manufacturer.

[2] = design: method as in PMID 26199994; conditions: cited from earlier work

Molecule | Kd [1] [µM] | reduction of affinity for inorganic phosphate compared to wild-type ([2]; I76G mutation) [fold] | Kd ([2]; wild-type affinity for inorganic phosphate) [µM]
PBP (S3C-I76G-P86C): double-cysteine variant of E. coli phosphate binding protein PBP with additional I76G mutation (protein, UniProt P0AG82 26-346, looked up, variant S3C I76G P86C) Phosphate-binding protein PstS: EACLTGAGATFPAPVYAKWADTYQKETGNKVNYQGIGSSGGVKQIIANTVDFGASDAPLSDEKLAQEGLFQFPTVGGGVVLAVNICGLKSGELVLDGKTLGDIYLGKIKKWDDEAIAKLNPGLKLPSQNIAVVRRADGSGTSFVFTSYLAKVNEEWKNNVGTGSTVKWPIGLGGKGNDGIAAFVQRLPGAIGYVEYAYAKQNNLAYTKLISADGKPVSPTEENFANAAKGADWSKTFAQDLTNQKGEDAWPITSTTFILIHKDQKKPEQGTEVLKFFDWAYKTGAKQANDLDYASLPDSVVEQVRAAWKTNIKDSSGKPLY | 10 ± 5 | – | –
PBP (I76G): cysteine-less PBP variant with only the I76G mutation (protein, UniProt P0AG82 26-346, looked up, variant I76G) Phosphate-binding protein PstS: EASLTGAGATFPAPVYAKWADTYQKETGNKVNYQGIGSSGGVKQIIANTVDFGASDAPLSDEKLAQEGLFQFPTVGGGVVLAVNIPGLKSGELVLDGKTLGDIYLGKIKKWDDEAIAKLNPGLKLPSQNIAVVRRADGSGTSFVFTSYLAKVNEEWKNNVGTGSTVKWPIGLGGKGNDGIAAFVQRLPGAIGYVEYAYAKQNNLAYTKLISADGKPVSPTEENFANAAKGADWSKTFAQDLTNQKGEDAWPITSTTFILIHKDQKKPEQGTEVLKFFDWAYKTGAKQANDLDYASLPDSVVEQVRAAWKTNIKDSSGKPLY | 19 ± 6 | ~200 | –
wild-type: wild-type E. coli phosphate binding protein PBP (phoS gene) (protein, UniProt P0AG82 26-346, looked up) Phosphate-binding protein PstS: EASLTGAGATFPAPVYAKWADTYQKETGNKVNYQGIGSSGGVKQIIANTVDFGASDAPLSDEKLAQEGLFQFPTVIGGVVLAVNIPGLKSGELVLDGKTLGDIYLGKIKKWDDEAIAKLNPGLKLPSQNIAVVRRADGSGTSFVFTSYLAKVNEEWKNNVGTGSTVKWPIGLGGKGNDGIAAFVQRLPGAIGYVEYAYAKQNNLAYTKLISADGKPVSPTEENFANAAKGADWSKTFAQDLTNQKGEDAWPITSTTFILIHKDQKKPEQGTEVLKFFDWAYKTGAKQANDLDYASLPDSVVEQVRAAWKTNIKDSSGKPLY | – | – | 0.07
